Results: publication PMC3264700 (Journal of Molecular and Cellular Cardiology, 2011)
Values joined by “and” are separate entries in the source; they are usually repeats but may differ in a detail not shown here. Equal entries are not always repeated. Where two headings read alike, the source gives them in different places.

B1: adiponectin, endogenous in human coronary artery VSMC (hCASMC) (natural protein, human (endogenous in hCASMC), UniProt Q15848 19-244, looked up)
chain: ETTTQGPGVLLPLPKGACTGWMAGIPGHPGHNGAPGRDGRDGTPGEKGEKGDPGLIGPKGDIGETGVPGAEGPRGFPGIQGRKGEPGEGAYVYRSAFSVGLETYVTIPNMPIRFTKIFYNQQNHYDGSTGKFHCNIPGLYYFAYHITVYMKDVKVSLFKKDKAMLFTYDQYQENNVDQASGSVLLHLEVGDQVWLQVYGEGERNGLYADNDNDSTFTGFLLYHDTN
B2: adiponectin secreted by wild type mouse aortic VSMC (natural protein, UniProt Q60994 18-247, looked up)
chain: EDDVTTTEELAPALVPPPKGTCAGWMAGIPGHPGHNGTPGRDGRDGTPGEKGEKGDAGLLGPKGETGDVGMTGAEGPRGFPGTPGRKGEPGEAAYVYRSAFSVGLETRVTVPNVPIRFTKIFYNQQNHYDGSTGKFYCNIPGLYYFSYHITVYMKDVKVSLFKKDKAVLFTYDQYQEKNVDQASGSVLLHLEVGDQVWLQVYGDGDHNGLYADNVNDSTFTGFLLYHDTN

How the values were obtained:
native gel or EMSA [1] = target: the molecule itself; experiment: native gel or EMSA
native gel or EMSA [2] = target: the molecule itself; experiment: native gel or EMSA; remark: listed apart in the source

| Protein | stoichiometry N (native gel or EMSA [1]) | stoichiometry N (native gel or EMSA [2]) |
| --- | --- | --- |
| B1 | 2 and 3 and 6 | – |
| B2 | – | 3 |
